Substitutions are numbered along the chain they refer to.
Tests used:
[1] = target: T1, rHuman IGF-1 sR (IGF-1 sR), CF (R&D Systems Cat#391-GR) (human, UniProt P08069 31-932); test: MSD ECL multi-spot plate, antigen immobilized; Fab 1000 nM; blank spot 630
T1 construct: Purchased soluble receptor; also called insulin-like growth factor-1 soluble receptor; IGF-R1

[2] = target: T2, rHuman Notch-1/Fc Chimera, CF (R&D Systems Cat#3647-TK) (human, UniProt P46531 19-526); test: as above
T2 construct: Purchased Fc chimera; not shown: Fc portion of the purchased chimera

[3] = target: T3, rHuman EGF R/Fc Chimera, CF (R&D Systems Cat#344-ER) (human, UniProt P00533 25-645); test: as above
T3 construct: Purchased Fc chimera; not shown: Fc portion of the purchased chimera

[4] = target: T4, rHuman CD44/Fc Chimera, CF (R&D Systems Cat#3660-CD) (human, UniProt P16070 21-220); test: as above
T4 construct: Purchased Fc chimera; not shown: Fc portion of the purchased chimera

[5] = target: T5, Recombinant Human DLL4 (R&D Systems Cat#1506-D4/CF) (human, UniProt Q9NR61 27-524); test: as above
T5 construct: Purchased recombinant protein; also called delta-like protein 4

[6] = target: T6, rHuman P-Cadherin/Fc Chimera, CF (R&D Systems Cat#861-PC) (human, UniProt P22223 108-654); test: as above
T6 construct: Purchased Fc chimera; not shown: Fc portion of the purchased chimera

[7] = target: T7, rHuman ErbB2/Fc Chimera, CF (R&D Systems Cat#1129-ER) (human, UniProt P04626 23-652); test: MSD ECL multi-spot plate, antigen immobilized; Fab 1.6 nM; blank spot 449
T7 construct: Purchased Fc chimera; also called HER2/neu; not shown: Fc portion of the purchased chimera

[8] = target: T2, rHuman Notch-1/Fc Chimera, CF (R&D …); test: as above
[9] = target: T8, rHuman Erythropoietin R/Fc Chimera, CF (R&D Systems Cat#963-ER) (human, UniProt P19235 25-250); test: as above
T8 construct: Purchased Fc chimera; also called EPO R/Fc; Epo R; not shown: Fc portion of the purchased chimera
T8 sequence: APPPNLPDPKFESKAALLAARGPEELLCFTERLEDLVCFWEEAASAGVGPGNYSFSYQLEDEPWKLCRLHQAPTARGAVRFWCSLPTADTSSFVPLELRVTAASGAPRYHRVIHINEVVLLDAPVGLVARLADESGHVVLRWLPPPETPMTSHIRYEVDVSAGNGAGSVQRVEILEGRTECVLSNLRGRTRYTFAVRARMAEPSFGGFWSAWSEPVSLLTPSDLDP

[10] = target: T6, rHuman P-Cadherin/Fc Chimera, CF (R&D …); test: as above
[11] = target: T9, rHuman Notch-1/Fc Chimera, CF (R&D Systems Cat#3647-TK) (human, UniProt P46531 19-526); test: ECL (MSD multi-spot), antigen on plate, Fab 50 nM
T9 construct: Bought Fc chimera; not shown: Fc of the bought chimera

[12] = target: T10, Recombinant Human DLL4 (R&D Systems Cat#1506-D4/CF) (human, UniProt Q9NR61 27-524); test: ECL (MSD multi-spot), antigen on plate, Fab 50 nM
T10 construct: Bought recombinant protein; also called delta-like protein 4

[13] = target: T11, rHuman HGF R/c-MET/Fc Chimera, CF (R&D Systems Cat#358-MT/CF) (human, UniProt P08581 25-932); test: ECL (MSD multi-spot), antigen on plate, Fab 50 nM
T11 construct: Bought Fc chimera; also called HGF R/Fc; not shown: Fc of the bought chimera

[14] = target: T12, rHuman CD44/Fc Chimera, CF (R&D Systems Cat#3660-CD) (human, UniProt P16070 21-220); test: ECL (MSD multi-spot), antigen on plate, Fab 50 nM
T12 construct: Bought Fc chimera; not shown: Fc of the bought chimera

[15] = target: T13, rHuman ErbB2/Fc Chimera, CF (R&D Systems Cat#1129-ER) (human, UniProt P04626 23-652); test: ECL (MSD multi-spot), antigen on plate, Fab 50 nM
T13 construct: Bought Fc chimera; also called HER2/neu; not shown: Fc of the bought chimera

[16] = target: T14, rHuman IGF-1 sR (insulin-like growth factor-1 soluble receptor), CF (R&D Systems Cat#391-GR) (human, UniProt P08069 31-932); test: ECL (MSD multi-spot), antigen on plate, Fab 50 nM
T14 construct: Bought soluble receptor; also called IGF-R1

[17] = target: T15, rHuman Erythropoietin R/Fc Chimera, CF (R&D Systems Cat#963-ER) (human, UniProt P19235 25-250); test: ECL (MSD multi-spot), antigen on plate, Fab 50 nM
T15 construct: Bought Fc chimera; also called EPO R/Fc; Epo R; not shown: Fc of the bought chimera
T15 sequence: T8 sequence

[18] = target: T16, rHuman EGF R/Fc Chimera, CF (R&D Systems Cat#344-ER) (human, UniProt P00533 25-645); test: ECL (MSD multi-spot), antigen on plate, Fab 50 nM
T16 construct: Bought Fc chimera; also called ErbB-1; not shown: Fc of the bought chimera

[19] = target: T17, rHuman P-Cadherin/Fc Chimera, CF (R&D Systems Cat#861-PC) (human, UniProt P22223 108-654); test: ECL (MSD multi-spot), antigen on plate, Fab 50 nM
T17 construct: Bought Fc chimera; also called CDH3; not shown: Fc of the bought chimera
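Further: blank spot per well as comparator with Hit at signal to blank ratio of 4 or more.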

B1: Fab VH5-51_IGHD5-18*01>3_IGHJ4*01_G100K & V3-4_IGLJ1*01 (Fab, V domains shown)
VH: EVQLVQSGAEVKKPGESLKISCKGSGYSFTSYWIGWVRQMPGKGLEWMGIIYPGDSDTRYSPSFQGQVTISADKSISTAYLQWSSLKASDTAMYYCARRKYSYGYDYFDYWGQGTLVTVSS
VL: QTVVTQEPSFSVSPGGTVTLTCGLSSGSVSTSYYPSWYQQTPGQAPRTLIYSTNTRSSGVPDRFSGSILGNKAALTITGAQADDESDYYCVLYMGSGISYVFGTGTKVTVL
notes: It was expressed as a Fab: CH1 with tags from Plasmid A and lambda CL from Plasmid E; also called Fab No. 22
Which ECL signal [1] does the source give for B1 here?
The ECL signal was 1130 ECL signal.

And the ECL signal [2]?
Its ECL signal is 1180 ECL signal.

What about the ECL signal [3] of the same binder?
Its ECL signal is 1030 ECL signal.

And the ECL signal [4]?
The ECL signal was 1020 ECL signal.

What about the ECL signal [5] of the same binder?
The ECL signal was 29600 ECL signal.

What about the ECL signal [6] of the same binder?
Its ECL signal is 1040 ECL signal.

B2: Fab VH5-51_IGHD5-18*01>3_IGHJ4*01_G100R & V3-4_IGLJ1*01 (Fab, V domains shown)
VH: B1 VH with K100R
VL: B1 VL
notes: It was expressed as a Fab: CH1 with tags from Plasmid A and lambda CL from Plasmid E; also called Fab No. 23
B2 was tested. Which ECL signal [7] did it give?
The ECL signal was 1440 ECL signal.

What about the ECL signal [8] of the same binder?
Its ECL signal is 1050 ECL signal.

And the ECL signal [9]?
Its ECL signal is 920 ECL signal.

What about the ECL signal [10] of the same binder?
The ECL signal was 666 ECL signal.

B3: Fab VH1-46_IGHD6-6*01_IGHJ1*01_S102A_S103P_S104F & L6_IGKJ1*01_S30N (Fab, V domains shown)
VH: QVQLVQSGAEVKKPGASVKVSCKASGYTFTSYYMHWVRQAPGQGLEWMGIINPSGGSTSYAQKFQGRVTMTRDTSTSTVYMELSSLRSEDTAVYYCAREEYAPFSAEYFQHWGQGTLVTVSS
VL: EIVLTQSPATLSLSPGERATLSCRASQSVNSYLAWYQQKPGQAPRLLIYDASNRATGIPARFSGSGSGTDFTLTISSLEPEDFAVYYCQQRSNWPPWTFGQGTKVEIKR
notes: Fab
What does the source list for B3?
ECL signal [11]: 279 ECL signal; ECL signal [12]: 37200 ECL signal; ECL signal [13]: 135 ECL signal; ECL signal [14]: 271 ECL signal; ECL signal [15]: 395 ECL signal; ECL signal [16]: 240 ECL signal; ECL signal [17]: 500 ECL signal; ECL signal [18]: 294 ECL signal; ECL signal [19]: 143 ECL signal

Reference: patent US20120058906A1 (published 2012)
